Results taken from patent publication US8524460.

T1: PSCA-glutathione S-transferase (GST) fusion protein (human) (UniProt O43653)
T1 sequence: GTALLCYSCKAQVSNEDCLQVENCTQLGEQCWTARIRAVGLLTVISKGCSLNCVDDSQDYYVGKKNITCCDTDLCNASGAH

T2: M (46-109)
T2 sequence (O43653 whole entry, species assumed, looked up): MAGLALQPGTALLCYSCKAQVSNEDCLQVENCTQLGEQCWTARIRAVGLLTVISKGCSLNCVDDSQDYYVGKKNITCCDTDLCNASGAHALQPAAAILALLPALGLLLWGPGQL


Legend:
Experiment in all cases: ELISA: GST-PSCA fusion protein 50 ng/well, hybridoma supernatant, anti-mouse-HRP, TMB; mean of duplicates
[1] = molecular target: T1, PSCA-glutathione S-transferase (GST) fusion protein (human)
[2] = substrate: T3, C (85-123)
T3 sequence (O43653 whole entry, species assumed, looked up): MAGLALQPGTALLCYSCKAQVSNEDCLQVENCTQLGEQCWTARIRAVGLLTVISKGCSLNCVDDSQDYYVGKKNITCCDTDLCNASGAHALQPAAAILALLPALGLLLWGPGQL

[3] = substrate: T4, N (2-50)
T4 sequence (O43653 whole entry, species assumed, looked up): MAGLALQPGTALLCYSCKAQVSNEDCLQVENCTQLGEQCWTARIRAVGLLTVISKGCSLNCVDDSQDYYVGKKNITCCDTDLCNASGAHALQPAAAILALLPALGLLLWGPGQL

M (46-109) = molecular target: T2, M (46-109)

| OD 450 nm [1] [OD 450 nm] | OD 450 nm [2] [OD 450 nm] | OD 450 nm [3] [OD 450 nm] | OD 450 nm (M (46-109)) [OD 450 nm] | Binder |
| --- | --- | --- | --- | --- |
| 1.05 | 0.001 | 0.493 |  | anti-PSCA monoclonal antibody 4A10 (antibody, part only; not given: light chain, mouse IgG2a, V domains shown, part only) VH: LVATASDVHSQVQLQQPGSELVRPGTSVKLSCKASGYTFSSYWMHWVKQRPGQGLEWIGNIDPGSGYTNYAENLKTKATLTVDTSSSTAYMQLSSLTSEDSAVYYCTSRSTMITTGFAYWGQGTLVTVSAATTTAPSVYPLA |
| 1.49 | 0.003 | 0.004 | 1.27 | anti-PSCA monoclonal antibody 1G8 (antibody, part only; not given: light chain, mouse IgG1, V domains shown, part only) VH: CFFLMAVVIGVNSEVQLQQSGAELVRSGASVKLSCTASGFNIKDYYIHWVNQRPDQGLEWIGWIDPENGDTEFVPKFQGKATMTADIFSNTAYLHLSSLTSEDTAVYYCKTGGFWGQGTLVTVSAAKTTPPSVYPL |
| 1.07 | 0.001 | 1.03 | 0.002 | anti-PSCA monoclonal antibody 2H9 (antibody, part only; not given: light chain, mouse IgG1, part only) VH: NDFGLSWVFIIVLLKGVRSEVRLEESGGGWVQPGGSMKLSCVASGFTFSNYWMTWVRQSPEKGLEWVAEIRLRSENYATHYAESVKGKFTISRDDSRSRLYLQMNNLRPEDSGIYYCTDGLGRPNWGQGTLVTVSAAKTTPPSVYPLAPCV |
